Changes are numbered by the printed parent chain.
B1: cx12003 (bispecific antibody)
single polypeptide, format of FIG. 5(i): QVQLLESGGGEVQPGGSLRLSCAASGSIANVDLMAWHRQAPGKQREPIAVINDAGSTYYAESVKGRFTISRDNAKNTLYLQMNSLRAEDTAVYYCNTATWRGGERYADWGQGTLVTVEPGSGGGSQVQLLESGGGEVQPGGSLRLSCAASGFTFSTSGMVWVRQAPGKGLEWVSTISDDARITVYAESVKGRFTISRDNAKNTVYLQMNSLRAEDTAVYYCATYRAGSRIGSYEDYYRGQGTLVTVEPGG
notes: anti-FcRn VHH linked to anti-albumin VHH
B2: cx12008 (bispecific antibody)
single polypeptide, format of FIG. 5(i): B1 single polypeptide, format of FIG. 5(i) with Q1E, E118R, Q126E, L130V, E247R
notes: as for B1
B3: cx12006 (bispecific antibody)
single polypeptide, format of FIG. 5(i): B1 single polypeptide, format of FIG. 5(i) with E11K, E136K
notes: as for B1
B4: cx12007 (B10a.v2.4 VHH x hz4A01v51.12 VHH) (bispecific antibody)
chain: B1 single polypeptide, format of FIG. 5(i) with Q1E, E11K, Q126E, E136K
B5: cx12032 (B10a.v2.1 VHH x hz4A01v51 VHH) (bispecific antibody)
chain: EVQLLESGGGEVQPGGSLRLSCAASGSIANVDLMAWHRQAPGKQREPIAVINDAGSTYYAESVKGRFTISRDNAKNTLYLQMNSLRAEDTAVYYCNTATWRGGERYADWGQGTLVTVKPEVQLVESGGGEVQPGGSLRLSCAASGFTFSTSGMVWVRQAPGKGLEWVSTISDDARITVYAESVKGRFTISRDNAKNTVYLQMNSLRAEDTAVYYCATYRAGSRIGSYEDYYRGQGTLVTVKPGG
B6: 4A01v3 (Fc fusion)
VHH: EVQLVESGGGEVQPGGSLRLSCAASGFAFSTSGMVWVRQAPGKGLEWVSTISDDARIIRYAESVKGRFTISRDNAKNTLYLQMNSLRAEDTAVYYCATYRAGSRIGSYEDYYRGQGTLVTVKP
notes: also called Hz4A01v3; not shown: Human Fc carrier and its linker
B7: 4A01v1 (Fc fusion)
VHH: B6 VHH with A55S
notes: also called Hz4A01v1; not shown: Human Fc carrier and its linker
B8: 4A01v3-8 (Fc fusion)
VHH: B6 VHH with R113W
notes: also called Hz4A01v3-8; not shown: Human Fc carrier and its linker
B9: 4A01v3-1 (Fc fusion, not shown: a dimerising Fc or GST; small tags and cut ends)
VHH: B6 VHH with A28T
notes: also called Hz4A01v3-1
B10: 4A01v3-5 (Fc fusion)
VHH: B6 VHH with V37Y
notes: also called Hz4A01v3-5; not shown: Human Fc carrier and its linker
B11: 4A01v9 (Fc fusion, not shown: a dimerising Fc or GST; small tags and cut ends)
VHH: B6 VHH with A55T
notes: also called Hz4A01v9
B12: 4A01v3-3 (Fc fusion, not shown: a dimerising Fc or GST; small tags and cut ends)
VHH: B6 VHH with V35A
notes: also called Hz4A01v3-3
B13: 4A01v3-4 (Fc fusion)
VHH: B6 VHH with V35S
notes: also called Hz4A01v3-4; not shown: Human Fc carrier and its linker
B14: 4A01v3-7 (Fc fusion)
VHH: B6 VHH with L79V
notes: also called Hz4A01v3-7; not shown: Human Fc carrier and its linker
B15: 4A01v4 (Fc fusion, not shown: a dimerising Fc or GST; small tags and cut ends)
VHH: B6 VHH with D54E, A55S
notes: also called Hz4A01v4
B16: 4A01v5 (Fc fusion, not shown: a dimerising Fc or GST; small tags and cut ends)
VHH: B6 VHH with D54E, A55G
notes: also called Hz4A01v5
B17: 4A01v8 (Fc fusion, not shown: a dimerising Fc or GST; small tags and cut ends)
VHH: B6 VHH with D54N
notes: also called Hz4A01v8
B18: 4A01v6 (Fc fusion, not shown: a dimerising Fc or GST; small tags and cut ends)
VHH: B6 VHH with D54S, A55G
notes: also called Hz4A01v6
B19: cx11383 (B10a.v1 VHH x hz4A01v51 VHH) (bispecific antibody)
chain: EVQLLESGGGEVQPGGSLRLSCTASGSIANVDMMAWHRQAPGKQREPIAVINDGGSTSYADSVKGRFTISRDNAKNTLYLQMSSLRAEDTAVYYCNTATWRGGERYADWGQGTLVTVKPGSGGGSEVQLVESGGGEVQPGGSLRLSCAASGFTFSTSGMVWVRQAPGKGLEWVSTISDDARITVYAESVKGRFTISRDNAKNTVYLQMNSLRAEDTAVYYCATYRAGSRIGSYEDYYRGQGTLVTVKPGG

target: T1, Human serum albumin (HSA) (human, UniProt P02768 25-609); assay: ELISA on coated human albumin, pH 7.4, HRP detection antibody, A450
T1 construct: also called human albumin; recombinant human albumin
T1 sequence (P02768 25-609): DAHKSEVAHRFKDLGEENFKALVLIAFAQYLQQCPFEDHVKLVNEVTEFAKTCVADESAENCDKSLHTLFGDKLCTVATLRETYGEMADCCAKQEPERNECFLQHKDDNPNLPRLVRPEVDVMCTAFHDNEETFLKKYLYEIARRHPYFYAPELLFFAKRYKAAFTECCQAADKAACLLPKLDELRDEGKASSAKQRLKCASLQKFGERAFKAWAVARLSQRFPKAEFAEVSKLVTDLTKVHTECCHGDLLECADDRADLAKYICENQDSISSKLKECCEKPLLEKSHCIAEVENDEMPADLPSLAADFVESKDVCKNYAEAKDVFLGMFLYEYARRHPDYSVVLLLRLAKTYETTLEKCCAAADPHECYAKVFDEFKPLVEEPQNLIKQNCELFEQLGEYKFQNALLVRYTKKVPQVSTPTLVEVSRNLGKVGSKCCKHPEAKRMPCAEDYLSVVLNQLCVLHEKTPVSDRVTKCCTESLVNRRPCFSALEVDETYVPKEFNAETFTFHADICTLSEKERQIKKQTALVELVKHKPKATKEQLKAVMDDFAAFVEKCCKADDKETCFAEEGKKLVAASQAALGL
Experimental: (§1) 96-well ELISA plates were coated with albumin protein in PBS overnight at 4° C., washed with PBS-T and then blocked with 5% milk powder in PBS-T for 1 h at room temperature. Serial dilutions of test articles were prepared in PBS pH 7.4 or a buffer containing 20 mM His, 150 mM NaCl, pH 5.5 and added to the plates. Plates were incubated for 1 h at room temperature. After the incubation cells were washed in the respective buffer and then incubated for 30 min at room temperature with a HRP-conjugated antibody detecting the polypeptides. Plates were washed in their respective buffers and TMB substrate was added and color allowed to develop. TMB substrate was stopped with an equal volume of stop solution (1M H₂SO₄). Absorbance at 450 nm was measured with a 96 well plate reader.

EC50 (read off the curve) [pM] | Binder
~400 | B1
~400 | B2
~400 | B3
~400 | B4

target: T1, Human serum albumin (HSA); assay: as above; remark: another data set of the same source
Experimental: as §1

EC50 (read off the curve) [pM] | Binder
~300 | B5

target: T1, Human serum albumin (HSA); assay: ELISA on coated human albumin, pH 5.5, HRP detection antibody, A450
Experimental: as §1

EC50 (read off the curve) [pM] | Binder
~400 | B2
~400 | B3
~400 | B4

target: T2, Rat serum albumin (RSA) (rat, UniProt P02770 25-608); assay: ELISA on coated rat albumin, anti-human Fc HRP, A650, one site-total binding fit
T2 construct: Bought protein (Sigma); also called rat albumin
T2 sequence (P02770 25-608): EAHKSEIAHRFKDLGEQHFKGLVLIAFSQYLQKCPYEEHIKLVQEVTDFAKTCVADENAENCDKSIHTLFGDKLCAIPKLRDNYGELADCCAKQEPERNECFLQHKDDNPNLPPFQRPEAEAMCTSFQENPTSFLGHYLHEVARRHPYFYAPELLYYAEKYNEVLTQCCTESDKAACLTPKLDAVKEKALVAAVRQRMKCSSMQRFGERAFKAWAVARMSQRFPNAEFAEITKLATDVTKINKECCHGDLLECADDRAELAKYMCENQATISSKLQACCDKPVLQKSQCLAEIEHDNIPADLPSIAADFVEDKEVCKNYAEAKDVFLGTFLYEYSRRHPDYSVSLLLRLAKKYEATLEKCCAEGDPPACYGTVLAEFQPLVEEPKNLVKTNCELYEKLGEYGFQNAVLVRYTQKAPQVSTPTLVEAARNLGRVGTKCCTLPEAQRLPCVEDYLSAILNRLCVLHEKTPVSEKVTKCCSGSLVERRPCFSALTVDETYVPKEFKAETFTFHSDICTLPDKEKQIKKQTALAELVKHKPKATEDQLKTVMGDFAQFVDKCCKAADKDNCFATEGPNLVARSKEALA
Experimental: (§2) Medisorp plates were coated with albumin protein at 2 μg/ml, 50 μl/well at 4° C. overnight (human, murine, and rat albumin-Sigma, cynomolgus monkey albumin-Abcam). 1× Fish Gelatin (blocking agent, Bethyl Laboratories) was added to albumin-coated wells followed by a 1 hour incubation at RT. Titrations of sdAb fusion proteins (starting at 100 nM, across 1:3 or down 1:4) were added and incubated for 1 hour at RT. Plates were washed 3 times with 0.1% D-PBST, and then anti-human Fc HRP antibody (1:2000 in 0.1% D-PBST, Jackson) was added and incubated for 30 minutes at RT. Plates were washed 3 times with 0.1% D-PBST, and then TMB substrate was added. Absorbance at 650 nm was read on a plate reader (Molecular Devices) and data were plotted using equation one site-total binding (Model: Y=Bmax*X/(Kd+X)+NS*X+Background, GraphPad Prism).

Kd [pM] | Bmax [A650] | Binder
162 | – | B6
184 | 1.28 | B7
169 | – | B8
130 | 1.28 | B9
162 | 1.35 | B10
144 | 1.27 | B11
152 | 1.32 | B12
252 | 1.41 | B13
123 | 1.35 | B14

target: T2, Rat serum albumin (RSA); assay: as above; remark: another data set of the same source
Experimental: as §2

Bmax [A650] | Kd [pM] | Binder
0.972 | 320 | B15
1 | 260 | B16
1.01 | 328 | B17
1.02 | 273 | B18

target: T3, human FcRn/B2m heterodimer protein (human, UniProt P55899 24-297; P61769 21-119, limits assumed); assay: ELISA on coated human FcRn/B2m heterodimer, pH 7.4, HRP detection antibody, A450
T3 construct: also called FcRn (ELISA)
Experimental: 96-well ELISA plates were coated with human FcRn/B2m heterodimer protein in PBS overnight at 4° C., washed with PBST and then blocked with 3% BSA in PBST for 1 h at RT. Serial dilutions of test articles were prepared in PBST pH 7.4 and added to the plates. Plates were incubated for 1 h at room temperature. After the incubation cells were washed in the PBST and then incubated for 1 h at room temperature with a horse radish peroxidase (HRP)-conjugated antibody detecting the polypeptides. Plates were washed with PBS-T followed by addition of TMB substrate and color allowed to develop. TMB substrate was stopped with an equal volume of stop solution (1M H₂SO₄). Absorbance at 450 nm was measured with a 96 well plate reader (Emax, Molecular Devices). All data were plotted and analyzed using GraphPad Prism analysis software.

binding result | Binder
binds | B19

target: T1, Human serum albumin (HSA); assay: ELISA on coated human albumin, anti-human Fc HRP, A650, one site-total binding fit
Experimental: as §2

Kd [pM] | Bmax [A650] | Binder
124 | – | B6
139 | 1.34 | B7
136 | – | B8
123 | 1.32 | B9
122 | 1.39 | B10
114 | 1.35 | B11
129 | 1.36 | B12
152 | 1.43 | B13
121 | 1.4 | B14

target: T1, Human serum albumin (HSA); assay: as above; remark: another data set of the same source
Experimental: as §2

Bmax [A650] | Kd [pM] | Binder
0.947 | 378 | B15
0.957 | 276 | B16
0.955 | 428 | B17
0.94 | 332 | B18

target: T4, Murine serum albumin (MSA) (mouse, UniProt P07724 25-608); assay: ELISA on coated murine albumin, anti-human Fc HRP, A650, one site-total binding fit
T4 construct: Bought protein (Sigma); also called murine albumin; mouse albumin
Experimental: as §2

Kd [pM] | Bmax [A650] | Binder
121 | – | B6
128 | 1.35 | B7
143 | – | B8
109 | 1.29 | B9
112 | 1.31 | B10
112 | 1.3 | B11
142 | 1.35 | B12
241 | 1.4 | B13
110 | 1.32 | B14

target: T4, Murine serum albumin (MSA); assay: as above; remark: another data set of the same source
Experimental: as §2

Bmax [A650] | Kd [pM] | Binder
1.1 | 250 | B15
1.09 | 189 | B16
1.1 | 226 | B17
1.09 | 206 | B18

target: T5, Cynomolgus monkey serum albumin (CSA) (cynomolgus monkey, UniProt A2V9Z4 25-608); assay: ELISA on coated cynomolgus monkey albumin, anti-human Fc HRP, A650, one site-total binding fit
T5 construct: Bought protein (Abcam); also called cynomolgus monkey albumin
T5 sequence (A2V9Z4 25-608): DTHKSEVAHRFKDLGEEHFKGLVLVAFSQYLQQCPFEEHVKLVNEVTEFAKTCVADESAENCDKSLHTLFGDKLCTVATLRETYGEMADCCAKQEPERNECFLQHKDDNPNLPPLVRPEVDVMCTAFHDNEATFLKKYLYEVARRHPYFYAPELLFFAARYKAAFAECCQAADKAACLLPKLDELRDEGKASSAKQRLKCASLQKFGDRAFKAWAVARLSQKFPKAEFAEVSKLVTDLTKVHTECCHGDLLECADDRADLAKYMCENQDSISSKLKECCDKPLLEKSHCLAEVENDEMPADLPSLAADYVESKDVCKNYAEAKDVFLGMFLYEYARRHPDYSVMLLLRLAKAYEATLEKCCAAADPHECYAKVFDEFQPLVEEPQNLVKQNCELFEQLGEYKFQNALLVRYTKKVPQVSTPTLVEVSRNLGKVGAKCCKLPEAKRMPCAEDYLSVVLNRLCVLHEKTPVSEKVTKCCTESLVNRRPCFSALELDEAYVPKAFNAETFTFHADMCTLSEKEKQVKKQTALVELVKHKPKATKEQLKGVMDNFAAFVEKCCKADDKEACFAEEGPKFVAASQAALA
Experimental: as §2

Bmax [A650] | Kd [pM] | Binder
1.31 | 157 | B7
1.35 | 147 | B8
1.29 | 127 | B9
1.34 | 126 | B10
1.29 | 117 | B11
1.35 | 142 | B12
1.37 | 181 | B13
1.31 | 118 | B14

target: T5, Cynomolgus monkey serum albumin (CSA); assay: as above; remark: another data set of the same source
Experimental: as §2

Bmax [A650] | Kd [pM] | Binder
0.994 | 338 | B6
0.954 | 247 | B15
0.939 | 203 | B16
0.961 | 225 | B18

target: T6, human FcRn extracellular domain (ECD) fused to a transmembrane domain and an intracellular citrine, with … (human); assay: flow cytometry, CHO cells transiently expressing human FcRn ECD-TM-citrine and B2M, pH 6, AF647 detection antibody
T6 construct: also called human FcRn overexpressed on CHO cells; FcRn transfected CHO cells
Experimental: (§3) Binding of anti-FcRn VHH polypeptides to human FcRn at neutral (7.4) or endosomal (6) pH was tested by flow cytometry using a CHO-based overexpression system or isolated human peripheral blood mononuclear cells (PBMC).
(§4) CHO cells were plated in 96-well plates at 50,000 cells per well and resuspended in PBS, pH 7.4 or a buffer containing 20 mM His, 150 mM NaCl, pH 6. Serial dilutions of test articles were prepared at 2× the final concentration in the buffers described above (pH 7.4 or pH 6) and added to the cell suspensions. Plates were incubated for 60 minutes at 4° C. After the incubation cells were washed in the respective buffer and then incubated for 30 minutes at 4° C. with a fluorescently labeled (AF647) antibody detecting the VHH polypeptides. Binding of the detection antibody to FcRn on transfected cells (citrine positive) was measured after a final wash using an iQue Screener (Sartorius).

EC50 (read off the curve) [pM] | Binder
~500 | B1
~400 | B2
~400 | B3
~400 | B4

target: T6, human FcRn extracellular domain (ECD) …; assay: as above; remark: another data set of the same source
Experimental: as §3, §4

EC50 (read off the curve) [pM] | Binder
~600 | B5

target: T6, human FcRn extracellular domain (ECD) …; assay: flow cytometry, CHO cells transiently expressing human FcRn ECD-TM-citrine and B2M, pH 7.4, AF647 detection antibody
Experimental: as §3, §4

EC50 (read off the curve) [pM] | Binder
~300 | B1
~700 | B2
~300 | B3
~300 | B4

target: T6, human FcRn extracellular domain (ECD) …; assay: as above; remark: another data set of the same source
Experimental: as §3, §4

EC50 (read off the curve) [pM] | Binder
~500 | B5

target: T6, human FcRn extracellular domain (ECD) …; assay: flow cytometry, HEK 293 cells transiently expressing human FcRn ECD-TM-citrine and B2M, pH 6; blocked ligand: biotinylated human IgG at 1 µM, detected with streptavidin-AF647
Experimental: 50,000 transiently transfected HEK 293 cells were plated in 96-well plates and resuspended in 20 mM His, 150 mM NaCl, pH 6. Serial dilutions of test articles were prepared at 2× the final concentration in the buffer described above and added to the cell suspensions. Plates were incubated for 60 minutes at 4° C. […] Cells were then washed in the buffer described above and subsequently incubated for 30 minutes at 4° C. with a fluorescently labeled (AF647) streptavidin to detect IgG binding to FcRn. Binding of streptavidin to cells expressing FcRn (citrine positive) was measured after a final wash using an iQue Screener (Sartorius). The data were plotted and analyzed using GraphPad Prism analysis software.

IC50 (read off the curve) [pM] | Binder
~7000 | B19

Source: patent US20250353911A1 (INHIBRX BIOSCIENCES, published 2025)
